Measurements published in patent US20230012273A1 (Boehringer Ingelheim, published 2023).

How the values were obtained:
[1] = biological target: T1, full-length human SIRPαV1 (NP_542970.1) on cells (human, UniProt P78324 31-504); assay: flow cytometry, CD14+ monocytes V1V1
T1 construct: one molecule for CHO-K1 and Expi-CHO transfectants (NP_542970.1) and for endogenous V1 on U-937 cells and on CD14+ monocytes of V1/V1 donors; also called CHO-hSIRPαV1; αV1 WT
Procedure: (§1) Antibody binding to primary human cells expressing SIRPα is evaluated by flow cytometry. Human peripheral blood mononuclear cells (PBMCs) from donors genotyped as homozygous for the SIRPα V1 allele, V2 allele, or heterozygous for both alleles are blocked with donkey IgG and incubated on ice with increasing concentrations of antibody for 60 minutes, washed and stained with AF647-conjugated donkey F(ab′)₂ anti-human IgG secondary reagent. […] Cells are washed, fixed, and analyzed by flow cytometry. Median fluorescent intensity of the CD14+ population was determined and used as a measure of antibody binding.

[2] = biological target: T2, full-length human SIRPαV2 (CAA71403.1) on cells (human, UniProt P78324 31-504); assay: flow cytometry, CD14+ monocytes V2V2
T2 construct: one molecule for CHO-K1 and Expi-CHO transfectants (CAA71403.1) and for endogenous V2 on THP-1 cells and on CD14+ monocytes of V2/V2 donors; also called CHO-hSIRPαV2; αV2 WT
Procedure: as §1

[3] = biological target: T2, full-length human SIRPαV2 (CAA71403.1) …; assay: flow cytometry, Expi-CHO cells
Procedure: (§2) Expi-CHO parental cells are transduced with lentiviruses containing either full-length wild-type human SIRPαV2 allele (CAA71403.1) or full-length human SIRPαV2 with amino acid point mutations (Table 58) and sorted to achieve matching expression levels. These cells are blocked with donkey IgG and incubated on ice with increasing concentrations of antibodies for 60 minutes, washed and stained with AF647-conjugated donkey F(ab′)₂ anti-human IgG antibodies. Stained cells are washed, fixed, and analyzed by flow cytometry. Median fluorescent intensity is determined and used as a measure of antibody binding.

[4] = biological target: T3, full-length human SIRPαV2 E→N on Expi-CHO cells (human, UniProt P78324 31-504); assay: flow cytometry, Expi-CHO cells
T3 construct: the entry already carries the change (TKRE to TKRN)
Procedure: as §2

[5] = biological target: T4, full-length human SIRPαV2 D→E on Expi-CHO cells (human, UniProt P78324 31-504); assay: flow cytometry, Expi-CHO cells
T4 construct: the entry already carries the change (SPDT to SPET)
Procedure: as §2

[6] = biological target: T5, full-length human SIRPαV1 D→E on Expi-CHO cells (human, UniProt P78324 31-504); assay: flow cytometry, Expi-CHO cells
T5 construct: the entry already carries the change (PDDV to PEDV)
Procedure: as §2, with “SIRPαV1” for “SIRPαV2”, “(NP_542970.1)” for “(CAA71403.1)”, “56)” for “58)”

[7] = biological target: T1, full-length human SIRPαV1 (NP_542970.1) …; assay: flow cytometry, Expi-CHO cells
Procedure: as §2, with “SIRPαV1” for “SIRPαV2”, “(NP_542970.1)” for “(CAA71403.1)”, “56)” for “58)”

[8] = biological target: T6, full-length human SIRPαV1 N→E on Expi-CHO cells (human, UniProt P78324 31-504); assay: flow cytometry, Expi-CHO cells
T6 construct: the entry already carries the change (TKRN to TKRE)
Procedure: as §2, with “SIRPαV1” for “SIRPαV2”, “(NP_542970.1)” for “(CAA71403.1)”, “56)” for “58)”

[9] = biological target: ED-tagged human SIRPα V1 receptor on Jurkat signaling reporter cells (human, UniProt P78324 31-504); assay: cell-based or functional assay
[10] = biological target: T1, full-length human SIRPαV1 (NP_542970.1) …; assay: flow cytometry, competition with CD47 tetramer, monocytes V1V1
Procedure: Cells are washed, fixed, and analyzed by flow cytometry. Median fluorescent intensity of CD14+gated population is determined and used as a measure of CD47 binding.

[11] = biological target: T7, full-length human SIRPβL H→D on Expi-CHO cells (human, UniProt Q5TFQ8 30-398); assay: flow cytometry, Expi-CHO cells
T7 construct: the entry already carries the change (PDHV to PDDV); also called βL WT H→D
Procedure: Expi-CHO parental cells are transduced with lentiviruses containing either full-length wild-type human SIRPβL (Q5TFQ8) or full-length human SIRPβL with a single amino acid point mutation (Table 62) and sorted to achieve matching expression levels. These cells are blocked with donkey IgG and incubated on ice with increasing concentrations of antibodies for 60 minutes, washed and stained with AF647-conjugated donkey F(ab′)₂ anti-human IgG antibodies. Stained cells are washed, fixed, and analyzed by flow cytometry. Median fluorescent intensity is determined and used as a measure of antibody binding.
A single amino acid substitution (H→D) introduced within the loop region maintained, strengthened, or facilitated antibody binding to these cells (FIG. 34B, Table 63).

[12] = biological target: T8, full-length human SIRPβ1 D→H on Expi-CHO cells (human, UniProt O00241 30-398); assay: flow cytometry, Expi-CHO cells expressing full-length human SIRPβ1 D→H
T8 construct: the entry already carries the change (PDDV to PDHV)
Procedure: (§3) These cells are blocked with donkey IgG and incubated on ice with increasing concentrations of antibodies for 60 minutes, washed and stained with AF647-conjugated donkey F(ab′)₂ anti-human IgG antibodies. Stained cells are washed, fixed, and analyzed by flow cytometry. Median fluorescent intensity is determined and used as a measure of antibody binding.

[13] = biological target: ED-tagged human SIRPα V2 receptor on Jurkat signaling reporter cells (human, UniProt P78324 31-504); assay: cell-based or functional assay
[14] = biological target: T9, full-length cynomolgus SIRPβ1 (XP_005568598) on CHO cells, clone PA2 (cynomolgus monkey); assay: flow cytometry, CHO cells
T9 construct: whole, on cells; also called SIRPβ1 XP_005568598 Clone PA2
Procedure: as §3, with “Antibody binding to cells expressing full-length cynomolgus SIRPβ1 (XP_005568598) and SIRPβ1v3 (XP_005568593) is evaluated by flow cytometry. SIRPβ1- or SIRPβ1V3-expressing CHO” for “These”, “secondary reagent. Cells” for “antibodies. Stained cells”

B1: Antibody B (antibody, human IgG1, kappa, L234A L235A, V domains shown)
VH: QVQLVQSGAEVKKPGASVKVSCKASGYTFTGNYMHWVRQAPGQGLEWMGWINPNSGGTNYAQKFQGRVTMTRDTSISTAYMELSRLRSDDTAVYYCVSGSGWYENYYYYGMDVWGQGTTVTVSS
VL: DIQMTQSPSSVSASVGDRVTITCRASQGISSWLAWYQQKPGKAPKLLIYAESSLQSGVPSRFSGSGSGTDFTLTISSLQPEDFATYYCQQANSFPLTFGGGTKVEIKR
- EC50 [1]: 26.6 nM
- EC50 [2]: 21.8 nM
- EC50 [3]: 3.6 nM
- EC50 [4]: 4.1 nM
- EC50 [5]: 3.7 nM
- EC50 [6]: 3.7 nM
- EC50 [7]: 3.8 nM
- EC50 [8]: 4.5 nM
- Blockade of Cellular CD47-Mediated SIRPα Signaling; IC50 [9]: 0.76 nM
- IC50 [10]: 2.55 nM

B2: Antibody A (antibody, human IgG1, kappa, L234A L235A)
heavy: not shown
light: DIQMTQSPSSLSASVGDRVTITCRASQDINNYLAWFQQKPGKAPKSLIYTASSLHSGVPSKFSGSGSGTDFTLTISSLQPEDFATYYCQQYVSYPYTFGQGTKLEIKRTVAAPSVFIFPPSDEQLKSGTASVVCLLNNFYPREAKVQWKVDNALQSGNSQESVTEQDSKDSTYSLSSTLTLSKADYEKHKVYACEVTHQGLSSPVTKSFNRGEC
- EC50 [11]: 0.5 nM
- binding result [12]: no binding (tested: about 67 nM)
- Blockade of Cellular CD47-Mediated SIRPα Signaling; IC50 [13]: 0.04 nM
- Blockade of Cellular CD47-Mediated SIRPα Signaling; IC50 [9]: 0.04 nM
- EC50 [14]: 0.7 nM

B3: Antibody C (antibody, human IgG1, kappa, L234A L235A, V domains shown)
VH: EVQLVESGGGLVQPGGSLRLSCAASGFTFSSYDMHWVRQATGKGLEWVSVIGIAGDTYYPGSVKGRFTISRENAKNSLYLQMNSLRVGDTAVYYCARGGSWDDAFDIWGQGTMVTVSS
VL: DIQMTQSPSSLSASIGDKVTITCRASQDINNYLAWFQQKPGKAPKSLIYTASSLQSGVPSKFSGSGSGTDFTLTISSLQPEDFATYYCQQYVSYPYTFGQGTKLEIKR
- EC50 [11]: 0.3 nM
- EC50 [1]: 0.6 nM
- binding result [12]: no binding (tested: about 67 nM)
- EC50 [2]: 0.3 nM
- EC50 [3]: 0.2 nM
- EC50 [4]: 0.2 nM
- EC50 [5]: 0.2 nM
- EC50 [6]: 0.2 nM
- EC50 [7]: 0.3 nM
- EC50 [8]: 0.3 nM
- Blockade of Cellular CD47-Mediated SIRPα Signaling; IC50 [13]: 0.03 nM
- Blockade of Cellular CD47-Mediated SIRPα Signaling; IC50 [9]: 0.04 nM
- IC50 [10]: 0.04 nM

B4: Antibody A10 (antibody, human IgG1, kappa, L234A L235A)
heavy: not shown
light: DIQMTQSPSSLSASVGDRVTITCRASQDINNYLAWFQQKPGKAPKSLIYTASSLHSGVPSKFSGSGSGTDFTLTISSLQPEDFATYYCQQYVSYPYTFGQGTKLEIKRTVAAPSVFIFPPSDEQLKSGTASVVCLLNNFYPREAKVQWKVDNALQSGNSQESVTEQDSKDSTYSLSSTLTLSKADYEKHKVYACEVTHQGLSSPVTKSFNRGEC
- EC50 [11]: 0.6 nM
- binding result [12]: no binding (tested: about 67 nM)
- Blockade of Cellular CD47-Mediated SIRPα Signaling; IC50 [13]: 0.04 nM
- Blockade of Cellular CD47-Mediated SIRPα Signaling; IC50 [9]: 0.04 nM
- EC50 [14]: 0.6 nM

B5: Antibody E (antibody, human IgG1, kappa, L234A L235A)
heavy: not shown
light: DIVMTQSPLSLPVTPGEPASISCKSSQSLLYSNGYNYLDWYLQRPGQSPQLLIYLGSNRASGVPDRFSGSGSGTDFTLKISRVEAEDVGVFYCMQALQTPLTFGGGTKVEIKRTVAAPSVFIFPPSDEQLKSGTASVVCLLNNFYPREAKVQWKVDNALQSGNSQESVTEQDSKDSTYSLSSTLTLSKADYEKHKVYACEVTHQGLSSPVTKSFNRGEC
- EC50 [11]: 0.5 nM
- EC50 [1]: 0.4 nM
- binding result [12]: no binding (tested: about 67 nM)
- EC50 [2]: 0.7 nM
- EC50 [3]: 0.3 nM
- EC50 [4]: 0.3 nM
- EC50 [5]: 0.3 nM
- EC50 [6]: 0.4 nM
- EC50 [7]: 0.5 nM
- EC50 [8]: 0.5 nM
- Blockade of Cellular CD47-Mediated SIRPα Signaling; IC50 (* Inhibition plateaus at <100%) [13]: 0.04 nM
- Blockade of Cellular CD47-Mediated SIRPα Signaling; IC50 [9]: 0.04 nM
- IC50 [10]: 0.09 nM

B6: Antibody E22 (antibody, human IgG1, kappa, L234A L235A, V domains shown)
VH: QVQLQESGPGLVKPSETLSLTCTVSGGSIRDYYWSWIRQPPGKGLEWIGFIYYNGRTFYQSSLKSRVTISLDTSKNQFSLKMTSVTAADTAVYYCARVRAYSGIGLDGTDVWGQGTTVTVSS
VL: DIVMTQSPLSLPVTPGEPASISCRSSQSLLYSTGYTYLDWYLQRPGQSPQLLIYGGSSRASGVPDRFSGSGSGTDFTLKISRVEAEDVGVFYCGQALQTPLTFGQGTKVEIKR
- EC50 [11]: 0.7 nM
- EC50 [1]: 0.8 nM
- binding result [12]: no binding (tested: about 67 nM)
- EC50 [2]: 0.4 nM
- EC50 [3]: 0.4 nM
- EC50 [4]: 0.4 nM
- EC50 [5]: 0.4 nM
- EC50 [6]: 0.7 nM
- EC50 [7]: 0.8 nM
- EC50 [8]: 0.9 nM
- Blockade of Cellular CD47-Mediated SIRPα Signaling; IC50 (* Inhibition plateaus at <100%) [13]: 0.07 nM
- Blockade of Cellular CD47-Mediated SIRPα Signaling; IC50 [9]: 0.07 nM
- IC50 [10]: 0.25 nM

B7: Antibody D (antibody, human IgG1, kappa, L234A L235A, V domains shown)
VH: EVQLVESGGGLVQPGGSLRLSCAASGFTFSSFDMHWVRQPTGKGLEWVSTIGIAGDTYFPGSVKGRFTISRENAKNSLYLQMNSLRAGDTAVYYCARGGNWDDALDIWGQGTMVTVSS
VL: DIQMTQSPSSLSASVGDRVTITCRASQDINNYLAWFQQKPGKAPKSLIYTASSLQSGVPSKFSGSGSGTDFTLTISSLQPEDFATYYCQQYNTYPYTFGQGTKLEIKR
- EC50 [11]: 0.2 nM
- EC50 [1]: 0.3 nM
- binding result [12]: no binding (tested: about 67 nM)
- EC50 [2]: 0.2 nM
- EC50 [3]: 0.2 nM
- EC50 [4]: 0.2 nM
- EC50 [5]: 0.6 nM
- EC50 [6]: 0.2 nM
- EC50 [7]: 0.3 nM
- EC50 [8]: 0.3 nM
- Blockade of Cellular CD47-Mediated SIRPα Signaling; IC50 [13]: 0.04 nM
- Blockade of Cellular CD47-Mediated SIRPα Signaling; IC50 [9]: 0.04 nM
- IC50 [10]: 0.03 nM
